Target: human histones H3.1–H4 tetramer (human) (UniProt P68431)
Experiment: ITC; MicroCal PEAQ-ITC, 20°C, 20 mM Tris-HCl pH 7.5, 500 mM NaCl; 300 μM DNAJC9 HBD in the syringe, 30 μM (dimers) H3-H4 in the cell; one set of sites model; n = 3

Chain of DNAJC9 HBD (171–249), GST tag removed (Q8WXX5 171-249): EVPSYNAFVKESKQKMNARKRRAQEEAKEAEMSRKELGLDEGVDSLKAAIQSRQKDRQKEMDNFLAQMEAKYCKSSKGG

For “DNAJC9 HBD (171–249), GST tag removed (from UniProt Q8WXX5 171-249) (domain or fragment)”, the Kd was 39.5 nM.

From paper PMC8221569
